Publication PMC5980108, “ARE-mediated decay controls gene expression and cellular metabolism upon oxygen variations”

Biological target: T1, dTIS11-6His (UniProt P47980 1-436)
T1 sequence: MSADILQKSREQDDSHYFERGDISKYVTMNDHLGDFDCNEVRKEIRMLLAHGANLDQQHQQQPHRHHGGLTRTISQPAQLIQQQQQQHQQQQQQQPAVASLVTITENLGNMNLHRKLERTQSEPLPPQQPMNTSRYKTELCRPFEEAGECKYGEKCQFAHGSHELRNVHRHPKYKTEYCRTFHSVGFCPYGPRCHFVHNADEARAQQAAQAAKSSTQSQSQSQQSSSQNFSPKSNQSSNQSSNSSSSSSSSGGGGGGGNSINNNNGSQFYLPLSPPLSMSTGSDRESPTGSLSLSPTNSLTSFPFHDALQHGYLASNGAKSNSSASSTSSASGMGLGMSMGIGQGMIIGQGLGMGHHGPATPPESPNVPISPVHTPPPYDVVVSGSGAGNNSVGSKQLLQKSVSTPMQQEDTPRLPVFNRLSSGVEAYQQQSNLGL
Assay: ITC; 5 uM ZnCl2; ITC: 20 mM MES pH 6.5, 300 mM NaCl, 5 uM ZnCl2, 0.5 mM DTT, 10 C; EMSA: 20 mM Tris pH 7.8, 3 mM MgCl2, 40 mM KCl, 2 mM DTT, 5% glycerol, gel at 4 C
Details: protein: recombinant; tags: C-terminal 6His

**Q.** For UGUUUAUUUUUAGUCCACCUCUCAAUUUAUUUAUUAUUUUUAUGA (ssRNA) [ImpL3 ARE (ITC)], which Kd is on record?
**A.** Its Kd is 2400 nM.

**Q.** GAUUAUUUAUAAUUAUUUAUUUAAAGAUCUAUUUAUUC (ssRNA) [CecA1 ARE] was tested. Which Kd did it give?
**A.** The Kd was 580 nM.

**Q.** Does AUUCUAUUGUUUCUUCUUAUAUAUUGUUAUUCUUCACAUAAUGUU (ssRNA) [Scrambled ImpL3 ARE (ITC)] bind?
**A.** Result: no binding

**Q.** Which Kd does the source give for CGAUUUAUUUAUUUAGA (ssRNA) [TNF ARE] here?
**A.** Its Kd is 895 nM.
